# Measurements taken from patent US20100015126A1, “Methods of Binding of Cross-Beta Structures By Chaperones” (priority 2006, published 2010).
# Key:
# [1] = target: Immunoglobulin heavy constant gamma 3 (G3m marker)/Ig gamma-3 chain C region (human) (UniProt P01860); test: BiP-Sepharose pull-down, AL amyloidosis patient I plasma (B2), MS of urea eluate; may be indirect
# [2] = target: Immunoglobulin lambda variable 3-25/V2-17 protein (Fragment) (human) (UniProt P01717); test: as above
# [3] = target: Isoform Long of Antigen KI-67/Antigen KI-67 (human) (UniProt P46013); test: as above
# [4] = target: Apolipoprotein E precursor/Apolipoprotein E/Apolipoprotein E3 (Fragment) (human) (UniProt P02649); test: as above
# Apolipoprotein E precursor/Apolipoprotein E/Apolipoprotein E3 (Fragment) (human), sequence (P02649 19-317 limits assumed): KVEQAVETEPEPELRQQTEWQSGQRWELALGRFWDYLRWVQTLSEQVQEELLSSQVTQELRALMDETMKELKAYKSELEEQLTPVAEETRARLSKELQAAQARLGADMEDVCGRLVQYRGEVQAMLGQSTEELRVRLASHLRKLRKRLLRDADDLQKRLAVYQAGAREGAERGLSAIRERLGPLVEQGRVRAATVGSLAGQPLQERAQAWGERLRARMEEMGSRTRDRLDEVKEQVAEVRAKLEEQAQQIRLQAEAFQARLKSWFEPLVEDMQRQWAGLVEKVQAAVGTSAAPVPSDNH
# [5] = target: IGLC2 protein (immunoglobulin lambda C2)/Immunoglobulin lambda (human) (UniProt P0DOY2); test: as above
# [6] = target: Fc fragment of IgG binding protein (IgGFc-binding protein precursor) (human) (UniProt Q9Y6R7); test: as above
# [7] = target: 25 kDa protein/immunoglobulin lambda chain/rheumatoid factor G9 light chain (lambda V3)/IGLC1 protein (human) (UniProt P0CG04); test: as above
# [8] = target: Dapper homolog 1 (hDPR1) (human) (UniProt Q9NYF0); test: BiP-Sepharose pull-down, RA patient III serum (B4), MS of urea eluate; may be indirect
# Dapper homolog 1 (hDPR1) (human), sequence (Q9NYF0 whole entry, the tested form may be a part): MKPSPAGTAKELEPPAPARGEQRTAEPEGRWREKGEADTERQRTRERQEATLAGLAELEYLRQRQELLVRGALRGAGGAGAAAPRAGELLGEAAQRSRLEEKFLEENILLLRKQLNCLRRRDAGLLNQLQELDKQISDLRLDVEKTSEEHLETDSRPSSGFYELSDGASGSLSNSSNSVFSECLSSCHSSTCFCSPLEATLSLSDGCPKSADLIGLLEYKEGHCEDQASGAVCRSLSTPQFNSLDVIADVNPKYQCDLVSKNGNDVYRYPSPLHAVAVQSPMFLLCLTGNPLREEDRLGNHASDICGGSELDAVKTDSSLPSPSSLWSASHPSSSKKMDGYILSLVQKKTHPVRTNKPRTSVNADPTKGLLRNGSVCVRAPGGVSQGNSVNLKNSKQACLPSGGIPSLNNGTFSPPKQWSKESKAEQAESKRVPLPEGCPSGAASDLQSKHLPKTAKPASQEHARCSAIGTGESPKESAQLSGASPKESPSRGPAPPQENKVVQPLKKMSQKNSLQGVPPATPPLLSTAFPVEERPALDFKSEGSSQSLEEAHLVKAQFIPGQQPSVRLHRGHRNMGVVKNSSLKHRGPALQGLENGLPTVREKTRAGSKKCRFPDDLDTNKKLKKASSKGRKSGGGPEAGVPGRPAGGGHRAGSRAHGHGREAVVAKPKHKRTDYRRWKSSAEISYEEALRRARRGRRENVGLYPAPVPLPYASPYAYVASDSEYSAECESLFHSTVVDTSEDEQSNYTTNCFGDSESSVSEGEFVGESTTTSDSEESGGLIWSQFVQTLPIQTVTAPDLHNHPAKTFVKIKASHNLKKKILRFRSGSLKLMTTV
# [9] = target: V1-3 protein (Fragment)/immunoglobulin lambda variable 2-11 (human) (UniProt P01706); test: as above
# V1-3 protein (Fragment)/immunoglobulin lambda variable 2-11 (human), sequence (P01706 20-119 limits assumed): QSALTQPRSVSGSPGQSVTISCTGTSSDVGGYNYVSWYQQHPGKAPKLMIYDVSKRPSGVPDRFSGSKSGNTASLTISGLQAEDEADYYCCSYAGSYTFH
# [10] = target: Hypothetical protein DKFZp686I04196 (Fragment)/Immunoglobulin heavy constant gamma 2 (G2m marker)/Ig gamma-2 chain C region (human) [IgG part: P01859]; test: as above
# Hypothetical protein DKFZp686I04196 (Fragment)/Immunoglobulin heavy constant gamma 2 (G2m marker)/Ig gamma-2 chain C region (human) [IgG part: P01859], sequence (P01859 other isoform, or with tags, fused parts or gaps limits assumed): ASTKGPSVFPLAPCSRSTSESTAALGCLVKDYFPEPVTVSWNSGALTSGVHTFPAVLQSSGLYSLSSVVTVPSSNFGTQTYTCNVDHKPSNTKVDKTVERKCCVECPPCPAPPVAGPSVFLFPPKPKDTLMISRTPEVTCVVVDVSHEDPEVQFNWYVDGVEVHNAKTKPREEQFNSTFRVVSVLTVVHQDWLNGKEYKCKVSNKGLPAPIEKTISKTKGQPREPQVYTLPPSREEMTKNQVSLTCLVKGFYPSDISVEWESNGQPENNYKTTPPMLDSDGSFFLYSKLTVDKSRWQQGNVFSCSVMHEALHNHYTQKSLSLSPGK
# [11] = target: GCN1 general control of amino-acid synthesis 1-like 1 (yeast)/GCN1-like protein 1 (HsGCN1) (human) (UniProt Q92616); test: as above
# GCN1 general control of amino-acid synthesis 1-like 1 (yeast)/GCN1-like protein 1 (HsGCN1) (human), sequence (Q92616 2-2671 limits assumed): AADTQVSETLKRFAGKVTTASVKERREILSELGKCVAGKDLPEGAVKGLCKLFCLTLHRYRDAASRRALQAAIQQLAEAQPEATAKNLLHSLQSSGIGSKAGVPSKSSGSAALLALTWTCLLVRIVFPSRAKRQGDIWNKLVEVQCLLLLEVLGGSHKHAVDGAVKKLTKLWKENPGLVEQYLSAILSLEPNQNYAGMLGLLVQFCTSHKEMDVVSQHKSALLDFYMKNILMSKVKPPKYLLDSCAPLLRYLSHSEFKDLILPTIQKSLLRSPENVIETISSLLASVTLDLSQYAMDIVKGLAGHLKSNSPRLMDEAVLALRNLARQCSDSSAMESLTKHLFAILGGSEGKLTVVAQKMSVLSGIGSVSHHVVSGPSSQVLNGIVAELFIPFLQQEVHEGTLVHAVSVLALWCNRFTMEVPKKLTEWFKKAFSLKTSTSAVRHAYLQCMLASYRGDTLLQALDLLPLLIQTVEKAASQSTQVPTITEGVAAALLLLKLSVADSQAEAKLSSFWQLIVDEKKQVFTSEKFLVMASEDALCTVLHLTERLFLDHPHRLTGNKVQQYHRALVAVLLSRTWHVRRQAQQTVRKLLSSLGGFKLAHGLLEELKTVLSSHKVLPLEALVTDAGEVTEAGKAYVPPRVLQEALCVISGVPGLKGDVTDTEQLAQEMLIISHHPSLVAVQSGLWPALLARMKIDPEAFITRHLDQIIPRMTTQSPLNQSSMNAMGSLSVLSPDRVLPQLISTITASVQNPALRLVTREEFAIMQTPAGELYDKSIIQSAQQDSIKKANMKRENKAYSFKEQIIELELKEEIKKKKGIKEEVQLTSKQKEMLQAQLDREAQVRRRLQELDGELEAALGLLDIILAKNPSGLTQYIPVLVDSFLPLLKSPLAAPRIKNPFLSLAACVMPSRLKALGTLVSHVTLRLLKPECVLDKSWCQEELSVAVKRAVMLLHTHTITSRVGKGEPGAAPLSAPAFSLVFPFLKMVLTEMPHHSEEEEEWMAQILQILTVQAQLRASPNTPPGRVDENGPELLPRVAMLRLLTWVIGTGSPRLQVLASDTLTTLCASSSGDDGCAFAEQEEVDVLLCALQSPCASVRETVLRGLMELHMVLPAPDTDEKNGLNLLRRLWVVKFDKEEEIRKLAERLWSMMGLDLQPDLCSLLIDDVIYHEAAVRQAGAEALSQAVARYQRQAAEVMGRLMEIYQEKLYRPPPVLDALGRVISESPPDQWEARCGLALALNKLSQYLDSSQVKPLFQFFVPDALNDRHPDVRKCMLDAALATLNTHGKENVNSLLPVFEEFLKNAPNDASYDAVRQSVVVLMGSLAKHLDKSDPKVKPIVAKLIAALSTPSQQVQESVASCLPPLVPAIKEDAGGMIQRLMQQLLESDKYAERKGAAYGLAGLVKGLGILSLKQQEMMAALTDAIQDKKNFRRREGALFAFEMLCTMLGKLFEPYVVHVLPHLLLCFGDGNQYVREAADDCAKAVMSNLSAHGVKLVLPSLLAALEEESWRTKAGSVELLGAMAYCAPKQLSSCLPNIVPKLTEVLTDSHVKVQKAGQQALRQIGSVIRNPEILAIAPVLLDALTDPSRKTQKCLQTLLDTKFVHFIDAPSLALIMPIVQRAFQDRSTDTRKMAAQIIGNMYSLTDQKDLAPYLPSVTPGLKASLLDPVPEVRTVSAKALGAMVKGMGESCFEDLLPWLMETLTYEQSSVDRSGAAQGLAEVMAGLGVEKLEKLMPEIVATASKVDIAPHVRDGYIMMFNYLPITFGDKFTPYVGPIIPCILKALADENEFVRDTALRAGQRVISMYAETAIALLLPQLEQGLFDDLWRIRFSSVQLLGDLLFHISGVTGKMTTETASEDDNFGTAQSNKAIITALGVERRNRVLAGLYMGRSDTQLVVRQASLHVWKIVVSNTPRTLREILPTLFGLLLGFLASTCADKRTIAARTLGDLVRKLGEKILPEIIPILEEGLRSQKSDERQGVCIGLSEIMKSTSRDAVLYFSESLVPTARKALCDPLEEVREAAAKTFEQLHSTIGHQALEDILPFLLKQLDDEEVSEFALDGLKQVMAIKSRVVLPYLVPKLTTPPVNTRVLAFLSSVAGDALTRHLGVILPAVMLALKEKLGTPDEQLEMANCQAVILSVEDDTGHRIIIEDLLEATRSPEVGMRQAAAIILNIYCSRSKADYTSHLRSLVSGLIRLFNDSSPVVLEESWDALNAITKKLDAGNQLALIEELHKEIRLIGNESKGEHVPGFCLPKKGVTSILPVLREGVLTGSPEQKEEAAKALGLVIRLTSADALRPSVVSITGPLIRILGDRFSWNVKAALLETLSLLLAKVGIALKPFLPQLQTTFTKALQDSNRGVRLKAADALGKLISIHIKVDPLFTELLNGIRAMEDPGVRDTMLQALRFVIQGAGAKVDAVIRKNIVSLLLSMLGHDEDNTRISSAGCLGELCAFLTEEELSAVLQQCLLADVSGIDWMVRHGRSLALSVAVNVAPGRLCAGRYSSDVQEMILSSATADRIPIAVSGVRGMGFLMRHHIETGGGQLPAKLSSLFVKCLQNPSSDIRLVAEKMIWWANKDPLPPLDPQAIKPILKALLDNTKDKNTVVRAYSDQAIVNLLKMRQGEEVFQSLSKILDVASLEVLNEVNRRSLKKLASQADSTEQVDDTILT
# Immunoglobulin heavy constant gamma 3 (G3m marker)/Ig gamma-3 chain C region (human), sequence (P01860 other isoform, or with tags, fused parts or gaps limits assumed): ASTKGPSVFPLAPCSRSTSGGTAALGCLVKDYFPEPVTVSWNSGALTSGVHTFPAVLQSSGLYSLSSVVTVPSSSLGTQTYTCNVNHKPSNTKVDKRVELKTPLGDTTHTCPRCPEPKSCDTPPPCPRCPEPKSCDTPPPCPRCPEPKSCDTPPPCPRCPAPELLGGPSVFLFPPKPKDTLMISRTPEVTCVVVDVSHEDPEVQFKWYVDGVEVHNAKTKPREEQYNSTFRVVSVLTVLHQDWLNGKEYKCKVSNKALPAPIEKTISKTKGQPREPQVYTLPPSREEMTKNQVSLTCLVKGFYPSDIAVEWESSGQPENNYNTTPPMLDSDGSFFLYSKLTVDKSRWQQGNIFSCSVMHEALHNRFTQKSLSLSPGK
# Immunoglobulin lambda variable 3-25/V2-17 protein (Fragment) (human), sequence (P01717 20-112 limits assumed): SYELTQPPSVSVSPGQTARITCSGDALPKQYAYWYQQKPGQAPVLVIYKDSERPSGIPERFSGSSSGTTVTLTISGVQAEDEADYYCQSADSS
substance,measurement,setting,value
"recombinant human BiP with C-terminal linker, FLAG-tag and His-tag (BiP-FLAG-His) (from UniProt P11021 19-654)",# of peptides,[1],2 peptides
same,# of peptides,[2],8 peptides
same,# of peptides,[3],1 peptides
same,# of peptides,[4],6 peptides
same,# of peptides,[5],1 peptides
same,# of peptides,[6],4 peptides
same,# of peptides,[7],1 peptides
same,# of peptides,[8],2 peptides
same,# of peptides,[9],1 peptides
same,# of peptides,[10],14 peptides
same,# of peptides,[11],2 peptides
